Results on one protein are retold here after PMC7247563, “Glycosylation Tunes Neuroserpin Physiological and Pathological Properties” (International Journal of Molecular Sciences, 2020).

The data set deals with the molecule itself. Nature of the data set: SEC; 63.8 uM NS or gNS in 10 mM Tris-HCl pH 8.0, 50 mM KCl, incubated at 45 °C; aliquots at different times run on a Superdex 200 Increase 10/300 GL column; heat-induced polymerisation. A general note: SEC sorts molecules by how far they enter the pores of the column.

B1: bacterially expressed human neuroserpin (non-glycosylated) (natural protein, UniProt Q99574 17-410, looked up)
chain: TGATFPEEAIADLSVNMYNRLRATGEDENILFSPLSIALAMGMMELGAQGSTQKEIRHSMGYDSLKNGEEFSFLKEFSNMVTAKESQYVMKIANSLFVQNGFHVNEEFLQMMKKYFNAAVNHVDFSQNVAVANYINKWVENNTNNLVKDLVSPRDFDAATYLALINAVYFKGNWKSQFRPENTRTFSFTKDDESEVQIPMMYQQGEFYYGEFSDGSNEAGGIYQVLEIPYEGDEISMMLVLSRQEVPLATLEPLVKAQLVEEWANSVKKQKVEVYLPRFTVEQEIDLKDVLKALGITEIFIKDANLTGLSDNKEIFLSKAIHKSFLEVNEEGSEAAAVSGMIAISRMAVLYPQVIVDHPFFFLIRNRRTGTILFMGRVMHPETMNTSGHDFEEL
notes: human neuroserpin (NS), wild type, from the pQE81L plasmid carrying the human NS gene; theoretical mass of the construct 46,271 Da; Samples were a mix of native NS and NS cleaved at Arg362; also called NS; bacterially purified NS; source: E. coli BL21 Rosetta (DE3) pLysS, purified (HiTrap Chelating HP, Superdex200 gel filtration)
With B1, the binding result is given as “binds”.
